From paper PMC9742257

Experiments:
[1] = target: N-terminal tagged 3XFLAG artemin construct (A. fransciscina); assay: native MS; intact complex; 200 mM ammonium acetate, 1-2 uM protein, Waters Synapt G2s-i
[2] = target: N-terminal tagged 3XFLAG artemin construct (A. fransciscina); assay: cryo-EM structure; single particle cryo-EM, 0.2-1.5 mg/ml protein on Quantifoil grids, 300 keV Titan Krios; C1 ab-initio then octahedral symmetry imposed
[3] = target: N-terminal tagged 3XFLAG artemin construct (A. fransciscina); assay: native MS; 24mer isolated (manual fixed quad profile of 10,000), then collision induced dissociation (argon); released subunits observed; dimers are held by inter-subunit disulfides
[4] = target: artemin with a C-terminal 6xHis tag (A. fransciscina); assay: native gel or EMSA; Native PAGE of the protein after affinity purification and SEC
[5] = target: artemin with a C-terminal 6xHis tag (A. fransciscina); assay: native MS; intact complex; 200 mM ammonium acetate, 1-2 uM protein, Waters Synapt G2s-i
[6] = target: artemin with a C-terminal 6xHis tag (A. fransciscina); assay: cryo-EM structure; single particle cryo-EM, 0.2-1.5 mg/ml protein on Quantifoil grids, 300 keV Titan Krios; C1 ab-initio then octahedral symmetry imposed
[7] = target: artemin with a C-terminal 6xHis tag (A. fransciscina); assay: native MS; 24mer isolated (manual fixed quad profile of 10,000), then collision induced dissociation (argon); released subunits observed; dimers are held by inter-subunit disulfides
[8] = target: fluorescent artemin-His (A. fransciscina); assay: native MS; intact complex; 200 mM ammonium acetate, 1-2 uM protein, Waters Synapt G2s-i
[9] = target: fluorescent artemin-His (A. fransciscina); assay: native MS; 24mer isolated (manual fixed quad profile of 10,000), then collision induced dissociation (argon); released subunits observed; dimers are held by inter-subunit disulfides

## N-terminal tagged 3XFLAG artemin construct (natural protein)
[1]
  stoichiometry N: 24
[2]
  stoichiometry N: 24
[3]
  stoichiometry N: 2

## artemin with a C-terminal 6xHis tag (natural protein)
[4]
  stoichiometry N: 24
[5]
  stoichiometry N: 24
[6]
  stoichiometry N: 24
[7]
  stoichiometry N: 2

## fluorescent artemin-His (natural protein)
[8]
  stoichiometry N: 24
[9]
  stoichiometry N: 2
